Assay results: patent US20240301051A1 (BEIGENE SWITZERLAND, published 2024)
Where a chain is given by its changes, count along the chain named.

Experiments:
human claudin 9 (CLDN9) = target: T1, human claudin 9 (CLDN9) (human, UniProt O95484 1-217); test: flow cytometry on HEK293T/human CLDN9 cells (non-specific binding validation)
T1 construct: also called human CLDN9
T1 sequence: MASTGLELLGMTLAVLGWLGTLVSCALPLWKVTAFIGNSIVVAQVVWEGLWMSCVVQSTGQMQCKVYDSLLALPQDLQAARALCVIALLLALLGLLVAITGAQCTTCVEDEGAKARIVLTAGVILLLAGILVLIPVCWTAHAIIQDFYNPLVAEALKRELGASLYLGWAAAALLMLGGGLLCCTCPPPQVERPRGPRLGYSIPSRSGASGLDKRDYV

human claudin 6 (CLDN6) = target: T2, human claudin 6 (CLDN6) (human, UniProt P56747 1-220); test: flow cytometry on HEK293T/human CLDN6 cells
T2 construct: also called human CLDN6; hCLDN6
T2 sequence: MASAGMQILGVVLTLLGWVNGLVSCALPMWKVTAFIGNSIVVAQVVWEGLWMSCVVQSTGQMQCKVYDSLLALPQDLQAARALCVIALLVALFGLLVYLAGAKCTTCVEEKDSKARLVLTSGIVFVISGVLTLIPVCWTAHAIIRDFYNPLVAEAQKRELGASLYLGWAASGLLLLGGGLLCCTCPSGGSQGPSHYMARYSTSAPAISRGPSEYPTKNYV
Procedure: For affinity determination, CLDN6 over-expressing HEK293T cells and cancer cell line PA-1 which express high levels of human CLDN6 were used to evaluate the binding activity of BG87P related engineering variants. Live cells were seeded in 96-well plate, and were incubated with a series of dilutions of chBG87P and engineered variants thereof. Goat anti-human IgG was used as second antibody to detect antibody binding to the cell surface. EC50 values for dose-dependent binding to CLDN6 expressing cell lines were determined by fitting the dose-response data to the four-parameter logistic model with GraphPad Prism. Cell binding activity of 1st round of BG87P humanization variants against HEK293T/human CLDN6 were compared to chBG87P and shown in FIG. 1A.

B1: BG87P-34 (antibody, V domains shown)
VH: EVQLQESGGGLVQPGGSLRLSCAASGYSFSDYHINWVRQAPGKGLEWVGYIYPGSGHTKYNEKFKGRFTISRDTSSNTAYLQMNSLRAEDTAVYYCARSGIYHYVSSYYFDHWGQGTLVTVSS
VL: DIQMTQSPSSLSASVGDRVTITCKASQDAGSAVAWYQQKPGKAPKLLIYWASTRHTGVPSRFSGSGSGTDFTLTISSLQPEDFATYYCQQYSSYTFGGGTKLEIK
notes: Final lead clone, framework IGHV3-23 and IGKV1-39; also called BG87-34
**Q.** Does B1 bind (human claudin 9 (CLDN9))?
**A.** no binding

B2: BG87P-33 (antibody, V domains shown)
VH: B1 VH with S30T, G49S, S76K
VL: B1 VL with S10T, D70E, E81D, L102V
notes: Framework-swapped variant; also called BG87-33
**Q.** With B2 as the binder, how does the “EC50 (read off the curve)” value (human claudin 6 (CLDN6)) read?
**A.** ~30 nM
